The labels stand for the following.
B1: Protein pleiotropic regulatory locus 1 (Arabidopsis thaliana (Mouse-ear cress)), Q42384 (parent)
chain: MPAPTTEIEPIEAQSLKKLSLKSLKRSLELFSPVHGQFPPPDPEAKQIRLSHKMKVAFGGVEPVVSQPPRQPDRINEQPGPSNALSLAAPEGSKSTQKGATESAIVVGPTLLRPILPKGLNYTGSSGKSTTIIPANVSSYQRNLSTAALMERIPSRWPRPEWHAPWKNYRVIQGHLGWVRSVAFDPSNEWFCTGSADRTIKIWDVATGVLKLTLTGHIEQVRGLAVSNRHTYMFSAGDDKQVKCWDLEQNKVIRSYHGHLSGVYCLALHPTLDVLLTGGRDSVCRVWDIRTKMQIFALSGHDNTVCSVFTRPTDPQVVTGSHDTTIKFWDLRYGKTMSTLTHHKKSVRAMTLHPKENAFASASADNTKKFSLPKGEFCHNMLSQQKTIINAMAVNEDGVMVTGGDNGSIWFWDWKSGHSFQQSETIVQPGSLESEAGIYAACYDNTGSRLVTCEADKTIKMWKEDENATPETHPINFKPPKEIRRF
partner: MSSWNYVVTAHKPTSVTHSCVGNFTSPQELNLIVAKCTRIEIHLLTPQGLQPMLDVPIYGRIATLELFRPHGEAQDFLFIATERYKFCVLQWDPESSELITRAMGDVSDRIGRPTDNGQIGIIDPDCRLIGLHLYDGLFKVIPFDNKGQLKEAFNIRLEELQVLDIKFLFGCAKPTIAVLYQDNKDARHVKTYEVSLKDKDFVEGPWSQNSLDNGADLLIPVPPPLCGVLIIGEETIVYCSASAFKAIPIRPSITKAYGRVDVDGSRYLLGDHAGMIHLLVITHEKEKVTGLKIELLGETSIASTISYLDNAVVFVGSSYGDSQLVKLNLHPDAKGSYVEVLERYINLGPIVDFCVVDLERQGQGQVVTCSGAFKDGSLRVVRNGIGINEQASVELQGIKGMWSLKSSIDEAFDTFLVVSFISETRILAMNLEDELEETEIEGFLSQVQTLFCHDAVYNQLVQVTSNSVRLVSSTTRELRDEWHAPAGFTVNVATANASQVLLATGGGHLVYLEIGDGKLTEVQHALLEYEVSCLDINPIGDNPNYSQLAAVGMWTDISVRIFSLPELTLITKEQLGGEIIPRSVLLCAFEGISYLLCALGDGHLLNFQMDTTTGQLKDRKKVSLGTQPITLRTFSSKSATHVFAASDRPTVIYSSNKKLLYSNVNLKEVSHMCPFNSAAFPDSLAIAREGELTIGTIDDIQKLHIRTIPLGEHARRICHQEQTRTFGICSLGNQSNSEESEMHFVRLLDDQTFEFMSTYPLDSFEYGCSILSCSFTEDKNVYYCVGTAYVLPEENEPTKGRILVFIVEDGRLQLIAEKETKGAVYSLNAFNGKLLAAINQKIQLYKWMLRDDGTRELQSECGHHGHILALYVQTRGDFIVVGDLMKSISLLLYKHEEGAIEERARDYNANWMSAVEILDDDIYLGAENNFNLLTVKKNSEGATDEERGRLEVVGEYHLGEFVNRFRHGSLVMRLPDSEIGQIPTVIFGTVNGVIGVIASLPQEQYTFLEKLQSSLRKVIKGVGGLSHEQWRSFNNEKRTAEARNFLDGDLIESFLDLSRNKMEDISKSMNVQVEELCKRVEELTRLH

In this assay the parent is B1. As to conditions: with ddb1a_arath DDB1A.
MPAPTTEIEPIEAQSLKKLSLKSLKRSLELFSPVHGQFPPPDPEAKQIRLSHKMKVAFGGVEPVVSQPPRQPDRINEQPGPSNALSLAAPEGSKSTQKGATESAIVVGPTLLRPILPKGLNYTGSSGKSTTIIPANVSSYQRNLSTAALMERIPSRWPRPEWHAPWKNYRVIQGHLGWVRSVAFDPSNEWFCTGSADRTIKIWDVATGVLKLTLTGHIEQVRGLAVSNRHTYMFSAGDDKQVKCWDLEQNKVIRSYHGHLSGVYCLALHPTLDVLLTGGRDSVCRVWDIHTKMQIFALSGHDNTVCSVFTRPTDPQVVTGSHDTTIKFWDLHYGKTMSTLTHHKKSVRAMTLHPKENAFASASADNTKKFSLPKGEFCHNMLSQQKTIINAMAVNEDGVMVTGGDNGSIWFWDWKSGHSFQQSETIVQPGSLESEAGIYAACYDNTGSRLVTCEADKTIKMWKEDENATPETHPINFKPPKEIRRF [R290H;R332H]: the “effect of a mutation on the interaction” value is “decreasing interaction”.

These data come from IntAct's records for PubMed 18223036.
